This is an account of results in article PMC9650030, “The RNA repair proteins RtcAB regulate transcription activator RtcR via its CRISPR-associated Rossmann fold domain” (iScience, 2022).

Assay [1] concerns the target MBP-RtcR (wild-type, full-length RtcR N-terminally tagged with maltose binding protein) (Escherichia coli) (UniProt P38035). Description: MST; RED-NHS-labelled MBP-RtcRWT or RtcR_(ΔCARF) (diluted to 50 nM, mixed with an equal volume) against a serial dilution of RtcA or RtcB; 24°C; modified PBS (250 mM NaCl) with 0.05% Tween-20; fitted with the Hill equation.
Assay [2] deals with T1, MBP-RtcR (wild-type, full-length RtcR N-terminally tagged with maltose binding protein) (Escherichia coli, UniProt P38035 1-532, labelled with Monolith RED-NHS 2nd Generation dye (amine reactive) in the MST experiments only).
T1 construct: also called RtcRWT; MBP-RtcRWT; not shown: MBP, N-terminal, kept
T1 sequence (looked up): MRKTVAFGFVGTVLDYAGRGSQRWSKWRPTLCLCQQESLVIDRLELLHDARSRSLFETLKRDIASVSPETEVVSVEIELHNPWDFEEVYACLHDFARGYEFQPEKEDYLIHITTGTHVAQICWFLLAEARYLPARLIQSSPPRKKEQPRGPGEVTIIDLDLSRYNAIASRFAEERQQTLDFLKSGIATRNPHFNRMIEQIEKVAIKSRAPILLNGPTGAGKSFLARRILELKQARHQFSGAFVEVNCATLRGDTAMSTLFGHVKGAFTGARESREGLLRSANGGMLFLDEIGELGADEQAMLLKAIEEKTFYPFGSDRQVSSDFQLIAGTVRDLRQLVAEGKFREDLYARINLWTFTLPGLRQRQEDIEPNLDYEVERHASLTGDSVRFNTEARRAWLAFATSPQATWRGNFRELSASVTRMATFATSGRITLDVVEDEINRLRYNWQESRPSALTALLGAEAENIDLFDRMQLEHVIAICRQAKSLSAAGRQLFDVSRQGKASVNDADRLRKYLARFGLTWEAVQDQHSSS
The description is as above. The note with it: both partners purified.

For “His-RtcB (N-terminal his-tagged RNA ligase RtcB) (from UniProt P46850 1-408) (enzyme)”, in assay [1], the Kd (as a rule, the equilibrium constant for the complex coming apart) amounted to 14.5 µM.

B1: His-RtcA (N-terminal his-tagged RNA 3'-terminal phosphate cyclase RtcA) (enzyme, Escherichia coli, UniProt P46849 1-338, looked up)
chain: MKRMIALDGAQGEGGGQILRSALSLSMITGQPFTITSIRAGRAKPGLLRQHLTAVKAATEICGATVEGAELGSQRLLFRPGTVRGGDYRFAIGSAGSCTLVLQTVLPALWFADGPSRVEVSGGTDNPSAPPADFIRRVLEPLLAKIGIHQQTTLLRHGFYPAGGGVVATEVSPVASFNTLQLGERGNIVQMRGEVLLAGVPRHVAEREIATLAGSFSLHEQNIHNLPRDQGPGNTVSLEVESENITERFFVVGEKRVSAEVVAAQLVKEVKRYLASTAAVGEYLADQLVLPMALAGAGEFTVAHPSCHLLTNIAVVERFLPVRFSLIETDGVTRVSIE
notes: RtcA, RNA 3'-terminal phosphate cyclase, Escherichia coli; not shown: His tag, N-terminal, kept
Molecule B1 showed a Kd in assay [2] of approximately 5 µM.
